Our source for the Kd values is publication PMC10132805.

Experiment [1] addresses V domain of programmed cell death 6-interacting protein (ALIX V) (human) (UniProt Q8WUM4).
The target in experiment [2] is N-terminal domain of clathrin (CLTC NTD) (human) (UniProt Q00610).
The target in experiment [3] is E3 ubiquitin-protein ligase NEDD4 WW2 domain (human).
Experiment [4] concerns the target E3 ubiquitin-protein ligase NEDD4 WW4 domain (human).

N-terminal domain of clathrin (CLTC NTD) (human), sequence (Q00610 whole entry, the tested form may be a part): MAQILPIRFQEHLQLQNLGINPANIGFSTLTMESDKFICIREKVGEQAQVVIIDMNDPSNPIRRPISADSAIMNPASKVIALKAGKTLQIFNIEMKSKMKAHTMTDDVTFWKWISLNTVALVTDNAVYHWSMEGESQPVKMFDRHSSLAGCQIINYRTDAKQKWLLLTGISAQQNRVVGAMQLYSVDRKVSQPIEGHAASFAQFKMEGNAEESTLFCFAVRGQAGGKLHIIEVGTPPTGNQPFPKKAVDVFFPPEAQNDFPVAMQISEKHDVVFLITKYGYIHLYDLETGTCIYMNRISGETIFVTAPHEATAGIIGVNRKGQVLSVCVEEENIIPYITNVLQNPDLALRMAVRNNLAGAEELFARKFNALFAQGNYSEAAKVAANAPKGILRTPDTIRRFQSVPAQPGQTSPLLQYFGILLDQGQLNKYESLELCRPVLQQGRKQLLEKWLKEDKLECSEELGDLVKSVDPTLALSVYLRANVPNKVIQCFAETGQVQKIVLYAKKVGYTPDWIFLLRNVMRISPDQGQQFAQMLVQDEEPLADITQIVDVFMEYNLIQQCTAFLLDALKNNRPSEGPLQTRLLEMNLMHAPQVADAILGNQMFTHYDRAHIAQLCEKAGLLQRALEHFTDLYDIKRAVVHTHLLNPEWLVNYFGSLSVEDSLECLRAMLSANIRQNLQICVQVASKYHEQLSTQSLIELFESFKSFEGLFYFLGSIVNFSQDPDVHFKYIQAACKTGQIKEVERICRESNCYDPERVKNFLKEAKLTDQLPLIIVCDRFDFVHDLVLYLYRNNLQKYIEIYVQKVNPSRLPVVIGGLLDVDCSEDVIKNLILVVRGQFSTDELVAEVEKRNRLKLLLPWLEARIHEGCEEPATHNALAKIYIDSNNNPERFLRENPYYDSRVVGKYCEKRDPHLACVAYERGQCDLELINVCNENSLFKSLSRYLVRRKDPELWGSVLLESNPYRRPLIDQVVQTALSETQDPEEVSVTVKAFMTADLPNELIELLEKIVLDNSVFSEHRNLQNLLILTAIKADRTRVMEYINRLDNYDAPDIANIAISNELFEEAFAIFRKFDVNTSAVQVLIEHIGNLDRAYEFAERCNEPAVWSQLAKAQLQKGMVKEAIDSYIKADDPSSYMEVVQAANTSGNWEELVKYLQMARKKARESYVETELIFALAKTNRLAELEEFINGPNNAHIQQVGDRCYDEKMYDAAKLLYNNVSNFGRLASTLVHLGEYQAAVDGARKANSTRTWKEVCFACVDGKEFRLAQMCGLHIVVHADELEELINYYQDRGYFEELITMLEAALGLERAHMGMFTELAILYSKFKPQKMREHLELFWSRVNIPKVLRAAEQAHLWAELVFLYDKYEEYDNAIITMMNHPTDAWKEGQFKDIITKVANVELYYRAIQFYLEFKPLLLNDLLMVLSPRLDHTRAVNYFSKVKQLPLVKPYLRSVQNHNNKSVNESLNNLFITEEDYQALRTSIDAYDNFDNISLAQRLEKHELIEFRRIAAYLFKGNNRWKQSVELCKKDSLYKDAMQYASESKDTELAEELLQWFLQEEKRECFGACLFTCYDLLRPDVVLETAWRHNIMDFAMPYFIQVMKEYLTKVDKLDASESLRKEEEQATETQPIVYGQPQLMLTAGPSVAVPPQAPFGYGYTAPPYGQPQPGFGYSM
V domain of programmed cell death 6-interacting protein (ALIX V) (human), sequence (Q8WUM4 whole entry, the tested form may be a part): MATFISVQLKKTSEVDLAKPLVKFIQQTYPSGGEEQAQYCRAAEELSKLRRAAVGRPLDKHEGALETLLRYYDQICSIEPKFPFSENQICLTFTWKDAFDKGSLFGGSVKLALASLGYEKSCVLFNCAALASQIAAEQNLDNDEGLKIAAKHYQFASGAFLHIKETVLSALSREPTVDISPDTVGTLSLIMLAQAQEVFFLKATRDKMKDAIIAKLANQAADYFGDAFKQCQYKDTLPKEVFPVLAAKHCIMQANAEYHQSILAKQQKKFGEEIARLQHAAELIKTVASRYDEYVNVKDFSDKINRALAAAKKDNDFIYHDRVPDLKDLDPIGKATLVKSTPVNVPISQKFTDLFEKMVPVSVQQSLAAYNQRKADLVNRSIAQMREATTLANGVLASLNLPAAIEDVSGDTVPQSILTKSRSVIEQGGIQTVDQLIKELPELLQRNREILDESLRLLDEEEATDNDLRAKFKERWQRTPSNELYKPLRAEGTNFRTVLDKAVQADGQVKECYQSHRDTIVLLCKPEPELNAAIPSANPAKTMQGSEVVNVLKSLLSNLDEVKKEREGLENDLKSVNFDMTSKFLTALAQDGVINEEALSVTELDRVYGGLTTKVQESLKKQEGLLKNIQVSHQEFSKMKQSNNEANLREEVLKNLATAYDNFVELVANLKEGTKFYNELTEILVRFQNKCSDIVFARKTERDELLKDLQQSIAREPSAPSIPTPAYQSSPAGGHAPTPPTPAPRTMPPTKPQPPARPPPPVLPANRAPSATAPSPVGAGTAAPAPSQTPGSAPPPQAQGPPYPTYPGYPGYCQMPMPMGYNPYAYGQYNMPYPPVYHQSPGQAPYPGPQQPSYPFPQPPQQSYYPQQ
E3 ubiquitin-protein ligase NEDD4 WW4 domain (human), sequence (P46934 whole entry, the tested form may be a part): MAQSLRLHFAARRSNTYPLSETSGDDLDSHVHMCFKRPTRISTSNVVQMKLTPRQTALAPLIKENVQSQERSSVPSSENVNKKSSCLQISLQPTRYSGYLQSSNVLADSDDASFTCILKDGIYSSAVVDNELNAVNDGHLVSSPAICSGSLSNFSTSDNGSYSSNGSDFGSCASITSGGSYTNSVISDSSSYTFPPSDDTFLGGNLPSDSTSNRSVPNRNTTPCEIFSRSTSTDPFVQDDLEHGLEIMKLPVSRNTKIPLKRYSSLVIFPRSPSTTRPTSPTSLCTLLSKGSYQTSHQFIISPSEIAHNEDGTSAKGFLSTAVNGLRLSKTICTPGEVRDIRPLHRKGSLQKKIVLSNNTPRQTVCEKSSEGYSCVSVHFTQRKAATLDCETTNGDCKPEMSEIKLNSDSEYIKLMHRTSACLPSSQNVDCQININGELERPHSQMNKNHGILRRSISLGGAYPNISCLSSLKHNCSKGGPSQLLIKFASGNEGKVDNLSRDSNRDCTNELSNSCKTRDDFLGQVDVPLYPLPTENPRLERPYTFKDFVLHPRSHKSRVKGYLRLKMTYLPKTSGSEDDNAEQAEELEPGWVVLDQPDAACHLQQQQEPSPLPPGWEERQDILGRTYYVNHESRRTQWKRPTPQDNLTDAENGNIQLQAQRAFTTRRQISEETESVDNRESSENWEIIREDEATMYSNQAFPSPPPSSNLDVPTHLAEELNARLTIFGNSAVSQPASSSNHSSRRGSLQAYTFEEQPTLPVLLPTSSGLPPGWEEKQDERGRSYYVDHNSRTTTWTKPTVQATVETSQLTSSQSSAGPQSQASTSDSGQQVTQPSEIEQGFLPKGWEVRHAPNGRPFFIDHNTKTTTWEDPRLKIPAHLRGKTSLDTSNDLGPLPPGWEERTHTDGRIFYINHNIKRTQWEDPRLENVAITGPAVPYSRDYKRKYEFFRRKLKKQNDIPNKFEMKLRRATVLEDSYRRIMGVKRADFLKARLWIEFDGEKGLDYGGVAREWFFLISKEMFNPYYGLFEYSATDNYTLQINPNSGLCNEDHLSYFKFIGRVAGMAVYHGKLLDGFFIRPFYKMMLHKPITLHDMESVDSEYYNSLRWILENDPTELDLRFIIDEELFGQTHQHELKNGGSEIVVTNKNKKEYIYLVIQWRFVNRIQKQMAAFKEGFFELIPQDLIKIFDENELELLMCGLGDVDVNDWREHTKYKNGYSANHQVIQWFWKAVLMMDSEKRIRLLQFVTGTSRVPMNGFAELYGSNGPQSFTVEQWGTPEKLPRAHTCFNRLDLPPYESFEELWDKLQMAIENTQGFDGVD
E3 ubiquitin-protein ligase NEDD4 WW2 domain (human), sequence (P46934 whole entry, the tested form may be a part): as above

The molecule MSSLYPSLEDLKVDQA [SDCBP2 1-16 (Human)] showed a Kd in experiment [1] of 0.29 µM.

Regarding PPPVLYPNLAELENYM [SDCBP2 39-54 (Human)], the Kd in experiment [1] worked out at 2.1 µM.

The molecule VPVDTNLIEFDTNYAT [ARRB2 367-382 (Human)] gave a dissociation constant (Kd) in experiment [2] of 40 µM.

Molecule GDLLGDLLNLDLGPPVY [AP1B1 626-641 (Human)] returned a dissociation constant Kd in experiment [2] of 300 µM. This Kd is about 7.5-fold higher than that of the molecule before.

For EPDQEPPPPYQEQVPV [RNF11 31-56 (Human)], the figures for the Kd in experiment [3] and in experiment [4] were 13 µM and 44 µM, respectively.

Take EPDQEPPPPYQEQVPVPVYHPTPSQ [RNF11 31-65 (Human)]: the Kd was 15 µM in experiment [3] and 35 µM in experiment [4].

The Kd is a measure of binding affinity in units of concentration. Low readings indicate higher affinity, high ones lower affinity.
